Source: patent US20240400618A1 (GRIFOLS DIAGNOSTIC SOLUTIONS, published 2024)
Like-named read-outs stand apart in the source and are kept apart here.

Columns and labels:
[1] = molecular target: pxEBNCP3-S1-His (SARS-CoV-2, UniProt P0DTC2 15-681)
[2] = molecular target: pxEBNCP4-tPa-S1-His (SARS-CoV-2, UniProt P0DTC2 15-681)
[3] = molecular target: pxENB14-His-TEV-RBD (SARS-CoV-2, UniProt P0DTC2 319-541)
[4] = molecular target: pxEBNCP16-IL2-FLS-CT-His (SARS-CoV-2, UniProt P0DTC2 16-1213)
[5] = molecular target: T1, pxENB8-FLS-TN-His (SARS-CoV-2, UniProt P0DTC2 15-1213)
[6] = molecular target: pxEBNCP2-tPa-His-TEV-S1 (SARS-CoV-2, UniProt P0DTC2 14-680)
[7] = molecular target: pxENBEP17_TPA_Nuc(1-182)_Spike (15-1216, GAAS, PP)_10xHis (SARS-CoV-2)
[8] = molecular target: T2, pxENB12-FLS-His (SARS-CoV-2, UniProt P0DTC2 15-1213)
[9] = molecular target: pxAM-FLS-A-TB-His (SARS-CoV-2, UniProt P0DTC2 15-1213)
[10] = molecular target: T3, pxENB2-His-TEV-FLS-CT (SARS-CoV-2, UniProt P0DTC2 14-1213)
[11] = molecular target: pxEBNCP14-tPa-FLS-CT-His (SARS-CoV-2, UniProt P0DTC2 16-1213)
[12] = molecular target: T4, pxENB1-His-TEV-FLS-TN (SARS-CoV-2, UniProt P0DTC2 14-1213)
[13] = molecular target: T5, pxENB17-RBD-His (SARS-CoV-2, UniProt P0DTC2 319-541)
[14] = molecular target: T6, pxENB9-FLS-CT-His (SARS-CoV-2, UniProt P0DTC2 15-1213)
[15] = molecular target: pxENBEP18_Spike_Nuc(1-182)_10xHis (SARS-CoV-2)
[16] = molecular target: pxEBNCP1-His-TEV-S1 (SARS-CoV-2, UniProt P0DTC2 14-680)
[17] = molecular target: T7, pxENB5-his-TEV-FLS (SARS-CoV-2, UniProt P0DTC2 14-1213)
[18] = molecular target: pxEBNCP15-mIgGHC-FLS-CT-His (SARS-CoV-2, UniProt P0DTC2 16-1213)
[19] = molecular target: pxENBCP17-FLS-CT-His-SBP (SARS-CoV-2, UniProt P0DTC2 15-1213)
[20] = molecular target: pxENBCP19-FLS-CT-His-StrepTagII (SARS-CoV-2, UniProt P0DTC2 15-1213)
[21] = molecular target: pxENBCP20-FLS-CT-His-TST (SARS-CoV-2, UniProt P0DTC2 15-1213)
[22] = molecular target: commercial RBD protein (SARS-CoV-2, UniProt P0DTC2 319-541)
[23] = molecular target: T5, pxENB17-RBD-His; remark: listed apart in the source
[24] = molecular target: T6, pxENB9-FLS-CT-His; remark: listed apart in the source
[25] = molecular target: T1, pxENB8-FLS-TN-His; remark: listed apart in the source
[26] = molecular target: T2, pxENB12-FLS-His; remark: listed apart in the source
[27] = molecular target: T3, pxENB2-His-TEV-FLS-CT; remark: listed apart in the source
[28] = molecular target: T4, pxENB1-His-TEV-FLS-TN; remark: listed apart in the source
[29] = molecular target: T6, pxENB9-FLS-CT-His; remark: listed apart in the source
[30] = molecular target: T7, pxENB5-his-TEV-FLS; remark: listed apart in the source
[31] = molecular target: T5, pxENB17-RBD-His; remark: listed apart in the source
[32] = molecular target: T5, pxENB17-RBD-His; test: BLI (Octet), ACE2 construct loaded on SA tips by its tag, RBD as analyte
[33] = molecular target: T6, pxENB9-FLS-CT-His; remark: listed apart in the source

B1: pxEBN4-ACE2-AAA-His (receptor)
chain: QSTIEEQAKTFLDKFNHEAEDLFYQSSLASWNYNTNITEENVQNMNNAGDKWSAFLKEQSTLAQMYPLQEIQNLTVKLQLQALQQNGSSVLSEDKSKRLNTILNTMSTIYSTGKVCNPDAPAECLLLEPGLNEIMANSLDYNERLWAWESWRSEVGKALRPLYEEYVVLKNEMARANHYEDYGDYWRGDYEVNGVDGYDYSRGQLIEDVEHTFEEIKPLYEHLHAYVRAKLMNAYPSYISPIGCLPAHLLGDMWGRFWTNLYSLTVPFGQKPNIDVTDAMVDQAWDAQRIFKEAEKFFVSVGLPNMTQGFWENSMLTDPGNVQKAVCHPTAWDLGKGDFRILMCTKVTMDDFLTAHHEMGHIQYDMAYAAQPFLLRNGANEGFHEAVGEIMSLSAATPKHLKSIGLLSPDFQEDNETEINFLLKQALTIVGTLPFTYMLEKWRWMVFKGEIPKDQWMKKWWEMKREIVGVVEPVPHDETYCDPASLFHVSNDYSFIRYYTRTLYQFQFQEALCQAAKHEGPLHKCDISNSTEAGQKLFNMLRLGKSEPWTLALENVVGAKNMNVRPLLNYFEPLFTWLKDQNKNSFVGWSTDWSPYADGGGSHHHHHHHH
[1]
  Kd: 39.6 nM
[2]
  Kd: 45 nM
[3]
  Kd: 0.156 nM
[4]
  Kd: 1.46 nM
[5]
  Kd: 12.4 nM
[6]
  Kd: 34.2 nM
[7]
  Kd: 26.9 nM
[8]
  Kd: 13.1 nM
[9]
  Kd: 0.00709 nM
[10]
  Kd: 0.45 nM
[11]
  Kd: 0.00613 nM
[12]
  Kd: 69.2 nM
[13]
  Kd: 0.242 nM
[14]
  Kd: < 0.001 nM
[15]
  Kd: 21.6 nM
[16]
  Kd: 22.8 nM
[17]
  Kd: 19.5 nM
[18]
  Kd: < 0.001 nM
[19]
  Kd: 51.5 nM
[20]
  Kd: 90.8 nM
[21]
  Kd: 51.6 nM
[22]
  Kd: 0.2 nM
[23]
  Kd: 32.6 nM
[24]
  Kd: 36.6 nM
[25]
  Kd: 6.51 nM
[26]
  Kd: 3.19 nM
[27]
  Kd: 1.1 nM
[28]
  Kd: 3.9 nM
[29]
  Kd: < 0.001 nM
[30]
  Kd: 16.6 nM

B2: pxEBN9-ACE2-AAA-SBP-His (receptor)
chain: QSTIEEQAKTFLDKFNHEAEDLFYQSSLASWNYNTNITEENVQNMNNAGDKWSAFLKEQSTLAQMYPLQEIQNLTVKLQLQALQQNGSSVLSEDKSKRLNTILNTMSTIYSTGKVCNPDAPAECLLLEPGLNEIMANSLDYNERLWAWESWRSEVGKALRPLYEEYVVLKNEMARANHYEDYGDYWRGDYEVNGVDGYDYSRGQLIEDVEHTFEEIKPLYEHLHAYVRAKLMNAYPSYISPIGCLPAHLLGDMWGRFWTNLYSLTVPFGQKPNIDVTDAMVDQAWDAQRIFKEAEKFFVSVGLPNMTQGFWENSMLTDPGNVQKAVCHPTAWDLGKGDFRILMCTKVTMDDFLTAHHEMGHIQYDMAYAAQPFLLRNGANEGFHEAVGEIMSLSAATPKHLKSIGLLSPDFQEDNETEINFLLKQALTIVGTLPFTYMLEKWRWMVFKGEIPKDQWMKKWWEMKREIVGVVEPVPHDETYCDPASLFHVSNDYSFIRYYTRTLYQFQFQEALCQAAKHEGPLHKCDISNSTEAGQKLFNMLRLGKSEPWTLALENVVGAKNMNVRPLLNYFEPLFTWLKDQNKNSFVGWSTDWSPYADGGGSMDEKTTGWRGGHVVEGLAGELEQLRARLEHHPQGQREPHHHHHHHH
[31]
  Kd: 32600 nM
[32]
  Response, shift in Wavelength (nm): 0.0002 nm
[33]
  Kd: 13400 nM
